The results in this text go back to article PMC3562662.

Substrate in this data set: O=C(O)/C=C/c1ccc(O)c(O)c1
The data set is described as follows: radiometric methyltransferase assay, scintillation counting, nonlinear Michaelis-Menten fit. It is filed as biochemical, Brachypodium distachyon. The conditions noted are these: co-substrate S-[methyl-14C]-adenosyl-L-methionine plus unlabeled SAM, 0.1 M Tris-HCl pH 7.5, 30°C, 20 min, methods heading b55 names BdCOMT1.

B1: BdCOMT4 (Brachypodium distachyon) (protein)
chain: MGSTAADMAATADEEACMFALQLASSSILPMTLKNAIELGLLDTLVQASGKSLTPAEVAAKLPSSSNPAAPDMVDRMLRLLASYGVVSCAVEEGENGKLSRRYAAAPVCKWLTPNEDGVSMAALALMNQDKVLMESWYYLKDAVLDGGIPFNKAYGMSAFEYHGTDPRFNRVFNEGMKNHSIIITKKLLDLYPGFEGLGTLVDVGGGVGATVGAIVARHPAIKGINFDLPHVISEGIPFPGVTHVGGDMFQKVPSGDAILMKWILHDWSDAHCATLLKNCYDALPAHGKVVIVECILPVNPEATPKAQGVFHVDMIMLAHNPGGKERYEREFEELARGAGFTGVKATYIYANAWAIEFTK
notes: full-length cDNA (from Bd21-3 plants) in pQE-T7-1, NdeI/XhoI, His-tagged; primer adds Met-Lys-Gln before native Met; expressed in E. coli, Ni-NTA purified
What is called Km is the substrate concentration at which the rate is half of its maximum. In the case of B1, the Km stood at 187 µM.
